Non-standard residues stand in square brackets, D forms with d. No end group written: not given here.
Key:
[1] = target: D33 (D37(A13K/A16K)); assay: RP-HPLC temperature profiling 5-77 C, pH 2, self-association (dimerization/oligomerization) relative to random coil control RC
[2] = target: human serum proteins; assay: cell-based or functional assay
[3] = target: D37; assay: RP-HPLC temperature profiling 5-77 C, pH 2, self-association (dimerization/oligomerization) relative to random coil control RC
[4] = target: D37; assay: RP-HPLC temperature profiling (0.25% B/min gradient), control AMP, self-association relative to RC
[5] = target: D38; assay: RP-HPLC temperature profiling 5-77 C, pH 2, self-association (dimerization/oligomerization) relative to random coil control RC
[6] = target: D39; assay: as above
[7] = target: D40; assay: as above
[8] = target: D85 (D84K3OrnK7OrnK11OrnK18OrnK22OrnK26Orn); assay: RP-HPLC temperature profiling (0.25% B/min gradient), Mix 1, self-association relative to RC
[9] = target: D105 (D84K3DprK7DprK11DprK18DprK22DprK26Dpr); assay: as above
[10] = target: D105 (D84K3DprK7DprK11DprK18DprK22DprK26Dpr); assay: RP-HPLC temperature profiling (0.25% B/min gradient), Mix 4, self-association relative to RC
[11] = target: D87 (D84K3ArgK7ArgK11ArgK18ArgK22ArgK26Arg); assay: RP-HPLC temperature profiling (0.25% B/min gradient), Mix 1, self-association relative to RC
[12] = target: D88 (D34(A1K)); assay: RP-HPLC temperature profiling (0.25% B/min gradient), Mix 2, self-association relative to RC
[13] = target: D101 (D33(A1K)K26S); assay: as above
[14] = target: D103 (D34(A1K)K26S); assay: as above
[15] = target: D106 (D88K3DprK7DprK14DprK15DprK22DprK26Dpr); assay: RP-HPLC temperature profiling (0.25% B/min gradient), Mix 4, self-association relative to RC

B1: D33 (D37(A13K/A16K)) (peptide)
peptide: [dA][dL][dK][dS][dL][dL][dK][dT][dL][dS][dK][dA][dK][dA][dA][dK][dL][dK][dT][dL][dL][dK][dA][dL][dS][dK]-NH2
modifications: N-terminus assumed
SMILES: CC(C)C[C@@H](NC(=O)[C@@H](C)N)C(=O)N[C@H](CCCCN)C(=O)N[C@H](CO)C(=O)N[C@H](CC(C)C)C(=O)N[C@H](CC(C)C)C(=O)N[C@H](CCCCN)C(=O)N[C@@H](C(=O)N[C@H](CC(C)C)C(=O)N[C@H](CO)C(=O)N[C@H](CCCCN)C(=O)N[C@H](C)C(=O)N[C@H](CCCCN)C(=O)N[C@H](C)C(=O)N[C@H](C)C(=O)N[C@H](CCCCN)C(=O)N[C@H](CC(C)C)C(=O)N[C@H](CCCCN)C(=O)N[C@@H](C(=O)N[C@H](CC(C)C)C(=O)N[C@H](CC(C)C)C(=O)N[C@H](CCCCN)C(=O)N[C@H](C)C(=O)N[C@H](CC(C)C)C(=O)N[C@H](CO)C(=O)N[C@H](CCCCN)C(N)=O)[C@H](C)O)[C@H](C)O
B1 was tested. Which PA (self-association parameter) [1] did it give?
The PA (self-association parameter) was 5.3 min.

And the MIC against A. baumannii strain 649 in 25% human serum (no serum: 0.1) [2]?
The MIC against A. baumannii strain 649 in 25% human serum (no serum: 0.1) was 0.7 µM.

B2: D37 (peptide)
peptide: [dA][dL][dK][dS][dL][dL][dK][dT][dL][dS][dK][dA][dA][dA][dA][dA][dL][dK][dT][dL][dL][dK][dA][dL][dS][dK]-NH2
modifications: N-terminus assumed
SMILES: CC(C)C[C@@H](NC(=O)[C@@H](C)N)C(=O)N[C@H](CCCCN)C(=O)N[C@H](CO)C(=O)N[C@H](CC(C)C)C(=O)N[C@H](CC(C)C)C(=O)N[C@H](CCCCN)C(=O)N[C@@H](C(=O)N[C@H](CC(C)C)C(=O)N[C@H](CO)C(=O)N[C@H](CCCCN)C(=O)N[C@H](C)C(=O)N[C@H](C)C(=O)N[C@H](C)C(=O)N[C@H](C)C(=O)N[C@H](C)C(=O)N[C@H](CC(C)C)C(=O)N[C@H](CCCCN)C(=O)N[C@@H](C(=O)N[C@H](CC(C)C)C(=O)N[C@H](CC(C)C)C(=O)N[C@H](CCCCN)C(=O)N[C@H](C)C(=O)N[C@H](CC(C)C)C(=O)N[C@H](CO)C(=O)N[C@H](CCCCN)C(N)=O)[C@H](C)O)[C@H](C)O
B2 was tested. Which PA (self-association parameter) [3] did it give?
Its PA (self-association parameter) is 18.5 min.

And the MIC against A. baumannii strain 649 in 25% human serum (no serum: 2.9) [2]?
The MIC against A. baumannii strain 649 in 25% human serum (no serum: 2.9) was > 92.8 µM.

What about the PA (self-association parameter) [4] of the same binder?
The PA (self-association parameter) was 37 min.

B3: D38 (peptide)
peptide: [dA][dL][dK][dS][dL][dL][dK][dT][dL][dS][dA][dA][dA][dK][dK][dA][dL][dA][dT][dL][dL][dK][dA][dL][dS][dK]-NH2
modifications: N-terminus assumed
SMILES: CC(C)C[C@@H](NC(=O)[C@@H](C)N)C(=O)N[C@H](CCCCN)C(=O)N[C@H](CO)C(=O)N[C@H](CC(C)C)C(=O)N[C@H](CC(C)C)C(=O)N[C@H](CCCCN)C(=O)N[C@@H](C(=O)N[C@H](CC(C)C)C(=O)N[C@H](CO)C(=O)N[C@H](C)C(=O)N[C@H](C)C(=O)N[C@H](C)C(=O)N[C@H](CCCCN)C(=O)N[C@H](CCCCN)C(=O)N[C@H](C)C(=O)N[C@H](CC(C)C)C(=O)N[C@H](C)C(=O)N[C@@H](C(=O)N[C@H](CC(C)C)C(=O)N[C@H](CC(C)C)C(=O)N[C@H](CCCCN)C(=O)N[C@H](C)C(=O)N[C@H](CC(C)C)C(=O)N[C@H](CO)C(=O)N[C@H](CCCCN)C(N)=O)[C@H](C)O)[C@H](C)O
Which PA (self-association parameter) [5] does the source give for B3 here?
Its PA (self-association parameter) is 19.5 min.

And the MIC against A. baumannii strain 649 in 25% human serum (no serum: 0.7) [2]?
Its MIC against A. baumannii strain 649 in 25% human serum (no serum: 0.7) is > 92.8 µM.

B4: D39 (peptide)
peptide: [dA][dL][dK][dS][dL][dL][dA][dT][dL][dS][dK][dA][dA][dK][dK][dA][dL][dK][dT][dL][dL][dA][dA][dL][dS][dK]-NH2
modifications: N-terminus assumed
SMILES: CC(C)C[C@@H](NC(=O)[C@@H](C)N)C(=O)N[C@H](CCCCN)C(=O)N[C@H](CO)C(=O)N[C@H](CC(C)C)C(=O)N[C@H](CC(C)C)C(=O)N[C@H](C)C(=O)N[C@@H](C(=O)N[C@H](CC(C)C)C(=O)N[C@H](CO)C(=O)N[C@H](CCCCN)C(=O)N[C@H](C)C(=O)N[C@H](C)C(=O)N[C@H](CCCCN)C(=O)N[C@H](CCCCN)C(=O)N[C@H](C)C(=O)N[C@H](CC(C)C)C(=O)N[C@H](CCCCN)C(=O)N[C@@H](C(=O)N[C@H](CC(C)C)C(=O)N[C@H](CC(C)C)C(=O)N[C@H](C)C(=O)N[C@H](C)C(=O)N[C@H](CC(C)C)C(=O)N[C@H](CO)C(=O)N[C@H](CCCCN)C(N)=O)[C@H](C)O)[C@H](C)O
Which results are given for B4?
PA (self-association parameter) [6]: 18.5 min; MIC against A. baumannii strain 649 in 25% human serum (no serum: 1.4) [2]: > 92.8 µM

B5: D40 (peptide)
peptide: [dA][dL][dA][dS][dL][dL][dK][dT][dL][dS][dK][dA][dA][dK][dK][dA][dL][dK][dT][dL][dL][dK][dA][dL][dS][dA]-NH2
modifications: N-terminus assumed
SMILES: CC(C)C[C@@H](NC(=O)[C@@H](C)N)C(=O)N[C@H](C)C(=O)N[C@H](CO)C(=O)N[C@H](CC(C)C)C(=O)N[C@H](CC(C)C)C(=O)N[C@H](CCCCN)C(=O)N[C@@H](C(=O)N[C@H](CC(C)C)C(=O)N[C@H](CO)C(=O)N[C@H](CCCCN)C(=O)N[C@H](C)C(=O)N[C@H](C)C(=O)N[C@H](CCCCN)C(=O)N[C@H](CCCCN)C(=O)N[C@H](C)C(=O)N[C@H](CC(C)C)C(=O)N[C@H](CCCCN)C(=O)N[C@@H](C(=O)N[C@H](CC(C)C)C(=O)N[C@H](CC(C)C)C(=O)N[C@H](CCCCN)C(=O)N[C@H](C)C(=O)N[C@H](CC(C)C)C(=O)N[C@H](CO)C(=O)N[C@H](C)C(N)=O)[C@H](C)O)[C@H](C)O
For B5, which PA (self-association parameter) [7] is on record?
The PA (self-association parameter) was 18.7 min.

What about the MIC against A. baumannii strain 649 in 25% human serum (no serum: 2.9) [2] of the same binder?
The MIC against A. baumannii strain 649 in 25% human serum (no serum: 2.9) was > 92.8 µM.

B6: D85 (D84K3OrnK7OrnK11OrnK18OrnK22OrnK26Orn) (peptide)
peptide: Ac-KLXSLLXTLSXAKAAKLXTLLXALSX-NH2
modifications: not fully specified (some residues); printed as Ac-KL(Orn)SLL(Orn)TLS(Orn)AKAAKL(Orn)TLL(Orn)ALS(Orn)-amide
How did the PA (self-association parameter) [8] turn out when B6 was run?
The PA (self-association parameter) was 2.9 min.

B7: D105 (D84K3DprK7DprK11DprK18DprK22DprK26Dpr) (peptide)
peptide: Ac-KLXSLLXTLSXAKAAKLXTLLXALSX-NH2
modifications: not fully specified (some residues); printed as Ac-KL(Dpr)SLL(Dpr)TLS(Dpr)AKAAKL(Dpr)TLL(Dpr)ALS(Dpr)-amide
How did the PA (self-association parameter) [9] turn out when B7 was run?
Its PA (self-association parameter) is 2.8 min.

And the PA (self-association parameter) [10]?
Its PA (self-association parameter) is 2.8 min.

B8: D87 (D84K3ArgK7ArgK11ArgK18ArgK22ArgK26Arg) (peptide)
peptide: Ac-KLRSLLRTLSRAKAAKLRTLLRALSR-NH2
modifications: not fully specified; printed as Ac-KL(Arg)SLL(Arg)TLS(Arg)AKAAKL(Arg)TLL(Arg)ALs(Arg)-amide; also: D-enantiomeric residues, extent not given here
For B8, which PA (self-association parameter) [11] is on record?
Its PA (self-association parameter) is 3.4 min.

B9: D88 (D34(A1K)) (peptide)
peptide: Ac-KLKSLLKTLSAAKKKKLATLLKALSK-NH2
modifications: not fully specified; printed as Ac-KL(Lys)SLL(Lys)TLSAAK(Lys)(Lys)KLATLL(Lys)ALS(Lys)-amide; also: D-enantiomeric residues, extent not given here
With B9 as the binder, how does the PA (self-association parameter) [12] read?
The PA (self-association parameter) was 6.9 min.

Which PA (self-association parameter) [13] does the source give for Ac-KLKSLLKTLSKAKAAKLKTLLKALSS-NH2 (not fully specified; also: D-enantiomeric residues, extent not given here) [D101 (D33(A1K)K26S)] here?
The PA (self-association parameter) was 7.2 min.

With Ac-KLKSLLKTLSAAKKKKLATLLKALSS-NH2 (not fully specified; also: D-enantiomeric residues, extent not given here) [D103 (D34(A1K)K26S)] as the binder, how does the PA (self-association parameter) [14] read?
Its PA (self-association parameter) is 7.2 min.

B10: D106 (D88K3DprK7DprK14DprK15DprK22DprK26Dpr) (peptide)
peptide: Ac-KLXSLLXTLSAAKXXKLATLLXALSX-NH2
modifications: not fully specified (some residues); printed as Ac-KL(Dpr)SLL(Dpr)TLSAAK(Dpr)(Dpr)KLATLL(Dpr)ALs(Dpr)-amide
How did the PA (self-association parameter) [15] turn out when B10 was run?
The PA (self-association parameter) was 2.5 min.
